Data published in the nanobody polyreactivity screen of Harvey et al. (2022).

Assay: yeast display, Sf9 membrane polyspecificity reagent, FACS + sequencing; frameworks hold sequencing errors
Outline: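 Galactose induction of a Saccharomyces cerevisiae BJ5465 synthetic nanobody display library ran 36–48 hours. The cells were then stained for 1 hour at 4 °C with 10% biotinylated, detergent-solubilized Sf9 membrane reagent, pulled down on streptavidin microbeads and FACS-sorted into low and high (top ~1%) gates on expression and reagent-binding fluorescence. Labels for polyreactivity follow the gate of origin.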

With “QVQLVESGGGLVQAGGSLRLSCAASGSNFYIYAMGRYRQAPGKERELVAAISYSGGRTTYADSVKGRFTISRDYAKNTVYLQMNSLKPEDTAVYYCAAGFSYYGLAVAPYRSWGRYYNWGQGTQVTVSS” as the sequence, how does the “polyreactivity (PSR sort gate)” value read?
The value was “high polyreactivity”.

For “QVQLVESGGGLVQAGGSLRLSCAASGSNFYNNVMGWYRQAPGKERELVAAINSGGRTYYADSVKGRFTISRDNAKNTVYLQMNSLKPEDTAVYYCAVGYGRAARMDYWGQGTQVTVSS”, which “polyreactivity (PSR sort gate)” value is on record?
Its value is “high polyreactivity”.

Which “polyreactivity (PSR sort gate)” value does the source give for “QVQLVESGGGLVQAGGSLRLSCAASGSNFYPYAMGWYRQAPGKERELVAGITGGGRTYYADSVKGRFTISRDNAKNTVYLQMNSLKPEDTAVYYCAAVDYVSYYIPFHYEYYWGQGTQVTVSS” here?
Its value is “low polyreactivity”.

For “QVQLVESGGGLVQAGGSLRLSCAASGSNFYVYAMGWYRQAPGKERELVAAIRWSGGSTYYADSVKGRFTISRDNANYPVYLQMNSLKPEDTADYYCAADAHPDSVWYGEYDYWGQGTQLTVSS”, which “polyreactivity (PSR sort gate)” value is on record?
The value was “low polyreactivity”.

Which “polyreactivity (PSR sort gate)” value does the source give for “QVQLVESGGGLVQAGGSLRLSCAASGSNLYPYAMGWYRQAPGKERELVAAISRGGSTNYADSVKGRYTIARDNAKNTVYLQMNSLKPDDTAVYYCATAYTRFSQRYEYYVIYWQNDYWGQGTQVTVSS” here?
The value was “low polyreactivity”.

Which “polyreactivity (PSR sort gate)” value does the source give for “QVQLVESGGGLVQAGGSLRLSCAASGSNSVYNAMGWYRQAPGKERELVAAISWSGGRTSYADSVKGRFTISRDNAKNTVYLQMNSLKPEDTAVYYCAADELTVLWDEDYWGQGTQVTVSS” here?
The value was “low polyreactivity”.

For “QVQLVESGGGLVQAGGSLRLSCAASGSNYTYYAMGWYRQAPGKERQLVAAIRSSGSTYYADSVKGRFTISRDNAKNTVYLQMNSLKPEDTAVYYCAAKARRLNASSYDYWGQGTQVTVSS”, which “polyreactivity (PSR sort gate)” value is on record?
The value was “high polyreactivity”.

Which “polyreactivity (PSR sort gate)” value does the source give for “QVQLVESGGGLVQAGGSLRLSCAASGSPFFVYAMGWYRQAPGTERELVAAISSRGSTYYADSVKGRFTIARDTAKNTVYLQMNSLKPEDTAVYYCAAEYTVSYLRMDYWGQGTQVTVSS” here?
The value was “low polyreactivity”.

For “QVQLVESGGGLVQAGGSLRLSCAASGSPFRGNAMGWYRQAPGKEREFVAAITVSCGSTYYADSVKGRFTISRDNAKNNVYLQMKSLNPEDTAVYYCAARYLRYSSKTIQNEDYWGQGTQVTVSS”, which “polyreactivity (PSR sort gate)” value is on record?
The value was “high polyreactivity”.

Which “polyreactivity (PSR sort gate)” value does the source give for “QVQLVESGGGLVQAGGSLRLSCAASGSPFYGYGMGWYRQAPVKERELVAASTRSGGSTYYADSVKGRFTRSRDNAKNTVYVQKNSLKPEDTEVYYCNKSGYKGGVGYDYWGQGTQVTVSS” here?
Its value is “high polyreactivity”.

With “QVQLVESGGGLVQAGGSLRLSCAASGSRYSRNAMGWYRQAPGKERELVAASSYSSGSTYYADSVKGRFTISLDNAKNTVYLQMNSLIPEDTAVYYCAADTTKLQGVEGDYWGQGTQVTVSS” as the sequence, how does the “polyreactivity (PSR sort gate)” value read?
The value was “low polyreactivity”.

With “QVQLVESGGGLVQAGGSLRLSCAASGSSFYDNAMGWYRQAPGKERELVAGIRSTGRTYYADSVKGRFTISRDNAKNTVYLQMNSLKPEDTAVYYCAAYVGTYGEYDYWGQGTQVTVSS” as the sequence, how does the “polyreactivity (PSR sort gate)” value read?
The value was “low polyreactivity”.

For “QVQLVESGGGLVQAGGSLRLSCAASGSSFYDYAMVWYRQAPGKERELVAAINGNGDSTYYADSVKGRFTISRDNAKYTVYLQMNSLKPEDNAVYYCAAYLGWGYDYWGQGTQVTVSS”, which “polyreactivity (PSR sort gate)” value is on record?
Its value is “low polyreactivity”.

Which “polyreactivity (PSR sort gate)” value does the source give for “QVQLVESGGGLVQAGGSLRLSCAASGSSFYSNAMGWYRQAPGKERELVAAISSSGGSTYYADSVKGRFTISRDNAKNTVYLQMNSLKPEDTAVYYCAAYSYYPPYDYWGQGTQVTVSS” here?
Its value is “high polyreactivity”.

For “QVQLVESGGGLVQAGGSLRLSCAASGSSGYFYALGWSRPAPGKERELVADMDWSGDSTYYADSVKGRFTISRDNAKTTVYLQMNSLKPEDTAVYYCNAAYDYYSPSYTYDYWGQGTQVTVSS”, which “polyreactivity (PSR sort gate)” value is on record?
The value was “low polyreactivity”.

For “QVQLVESGGGLVQAGGSLRLSCAASGSSTLMLMGWYRQAPGKERELVAVITSSGGRTYYADSVKGRFTISRDNAKNTVYLQMNSLKPEDTAVYYCNVDIGVYAYESDYWGQGTQVTVSS”, which “polyreactivity (PSR sort gate)” value is on record?
The value was “low polyreactivity”.

For “QVQLVESGGGLVQAGGSLRLSCAASGSTCRGYAMGWYRQAPGKEREFVAAISRRGGTTYYADSVKGRFTISRDNAKNTVYLQMNSLKQEDTAVYYCNKVYYQHYLAFDYWGQGTQVTVSS”, which “polyreactivity (PSR sort gate)” value is on record?
Its value is “high polyreactivity”.
